Assay results as given in US20020034767.

Experiments:
[1] = biological target: phosvitin
[2] = biological target: T1, rhodopsin in urea treated rod outer segments, P02699
T1 chain: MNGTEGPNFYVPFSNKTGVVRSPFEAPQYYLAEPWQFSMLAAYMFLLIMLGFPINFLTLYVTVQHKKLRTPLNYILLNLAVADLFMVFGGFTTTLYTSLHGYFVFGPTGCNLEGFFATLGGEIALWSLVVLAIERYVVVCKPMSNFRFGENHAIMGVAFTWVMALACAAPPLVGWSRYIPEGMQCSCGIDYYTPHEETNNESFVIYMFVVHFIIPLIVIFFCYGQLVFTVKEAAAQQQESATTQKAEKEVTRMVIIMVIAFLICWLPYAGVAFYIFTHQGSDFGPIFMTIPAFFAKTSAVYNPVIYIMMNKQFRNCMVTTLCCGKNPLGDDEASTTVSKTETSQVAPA

[3] = biological target: β2-adrenergic receptor
[4] = biological target: T2, peptide RRRASAAASAA containing a phosphoserine as the first serine
T2 chain: RRRASAAASAA

[5] = biological target: G protein βγ subunits
[6] = biological target: histones
[7] = biological target: casein
[8] = biological target: polylysine, a 14-16 amino acid peptide
[9] = biological target: m2 muscarinic cholinergic receptor
[10] = biological target: T3, peptide RRREEESEEE
T3 chain: RRREEESEEE

[11] = biological target: T4, peptide RRREEESGGG
T4 chain: RRREEESGGG

[12] = biological target: T5, peptide RRRAAAEASAAA
T5 chain: RRRAAAEASAAA

[13] = biological target: T6, peptide RRRAEASAA
T6 chain: RRRAEASAA

B1: G protein-coupled receptor kinase GRK6 (human) (protein)
chain: MELENIVANTVLLKAREGGGGNRKGKSKKWRQMLQFPHISQCEELRLSLERDYHSLCERHAIGRLLFREFCATRPELSRCVAFLDGVAEYEVTPDDKRKACGRHVTQNFLSHTGPDLIPEVPRQLVTNCTQRLEQGPCKDLFQELTRLTHEYLSVAPFADYLDSIYFNRFLQWKWLERQPVTKNTFRQYRVLGKGGFGEVCACQVRATGKMYACKKLEKKRIKKRKGEAMALNEKQILEKVNSRFVVSLAYAYETKDALCLVLTLMNGGDLKFHIYHMGQAGFPEARAVFYAAEICCGLEDLHRERIVYRDLKPENILLDDHGHIRISDLGLAVHVPEGQTIKGRVGTVGYMAPEVVKNERYTFSPDWWALGCLLYEMIAGQSPFQQRKKKIKREEVERLVKEVPEEYSERFSPQARSLCSQLLCKDPAERLGCRGGSAREVKEHPLFKKLNFKRLGAGMLEPPFKPDPQAIYCKDVLDIEQFSYVKGVELEPTDQDFYQKFATGSVPIPWQNEMVETECFQELNVFGLDGSVPPDLDWKGQPPAPPKKGLLQRLFSRQDCCGNCSDSEEELPTRL
With B1 the protein substrate phosphorylation [1] was “GRK6 was able to phosphorylate the acidic proteins casein and phosvitin”, the “rhodopsin phosphorylation activity relative to βARK virus infected supernatant” value [2] was 4.7% +/-0.4% that of the βARK virus infected supernatant and the “stimulus dependent receptor phosphorylation” value [3] was “GRK6 is also able to phosphorylate rhodopsin, β2-adrenergic and m2 muscarinic cholinergic receptors in a stimulus dependent manner, albeit to a significantly lower extent than βARK and GRK5”. For the same protein, the peptide phosphorylation [4] was “the same peptide containing a phosphoserine as the first serine is not phosphorylated by GRK6”, the “kinase activation by G protein βγ subunits” value [5] was “it is not activated by G protein βγ subunits” and the protein substrate phosphorylation [6] was “it was only weakly reactive toward the basic protein substrate histones”. For the same protein, the protein substrate phosphorylation [7] was “GRK6 was able to phosphorylate the acidic proteins casein and phosvitin”, the “fold increase in phosphorylation of rhodopsin” value [8] was “an ˜2.7-fold increase in phosphorylation (optimal range 1 to 10 µM)” and the “stimulus dependent receptor phosphorylation” value [9] was “GRK6 is also able to phosphorylate rhodopsin, β2-adrenergic and m2 muscarinic cholinergic receptors in a stimulus dependent manner, albeit to a significantly lower extent than βARK and GRK5”. For the same protein, the peptide phosphorylation [10] was “poorly phosphorylated by GRK6”, the peptide phosphorylation [11] was “poorly phosphorylated by GRK6” and the peptide phosphorylation [12] was “but not with the RRRAAAEASAAA (SEQ ID NO: 11) peptide”. For the same protein, the peptide phosphorylation [13] was “GRK6 activity was also apparent with the RRRAEASAA (SEQ ID NO: 10) peptide”.
